Experimental findings from US20090291890A1 (published 2009) are described below.

The target of test [1] is Factor X (Homo sapiens (Human)) (UniProt P00742).
Test [2] addresses Factor X (FX) (Homo sapiens (Human)) (UniProt P00742).

Positions count from the first letter of the chain named. In names and notes the source's numbering stands. Several values for one entry are separate records, joined by “and”; a condition that tells them apart may be missing. Equal entries are not always repeated.

Chain of Factor X (FX) (Homo sapiens (Human)) (P00742 41-488 limits assumed): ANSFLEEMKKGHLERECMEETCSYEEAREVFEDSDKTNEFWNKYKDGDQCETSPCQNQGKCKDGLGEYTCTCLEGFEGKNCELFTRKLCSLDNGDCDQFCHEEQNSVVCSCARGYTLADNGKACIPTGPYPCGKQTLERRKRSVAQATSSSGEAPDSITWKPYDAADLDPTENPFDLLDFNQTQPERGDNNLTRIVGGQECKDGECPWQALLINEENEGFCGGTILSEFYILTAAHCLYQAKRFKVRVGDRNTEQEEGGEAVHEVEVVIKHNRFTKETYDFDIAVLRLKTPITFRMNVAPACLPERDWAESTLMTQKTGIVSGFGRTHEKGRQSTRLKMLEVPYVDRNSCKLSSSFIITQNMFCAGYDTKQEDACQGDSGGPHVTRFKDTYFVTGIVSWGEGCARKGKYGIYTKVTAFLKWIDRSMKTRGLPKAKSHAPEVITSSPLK

Turning to “{Gla swap FIX/K43I}/T128N/P129A/Q286R/M298Q-FVIIa (enzyme)”, in test [1], the kcat/KM (M^-1s^-1), TF-dependent assay amounted to 2.71e+08 M⁻¹ s⁻¹ and the kcat/KM, TF-independent assay was 389 M⁻¹ s⁻¹.
On the same counts, the results for “{Gla swap FIX/K43I}/Q286R/M298Q/Q366N-FVIIa (enzyme)” are 1.69e+08 M⁻¹ s⁻¹ and 84.9 M⁻¹ s⁻¹.
Take “{Gla swap FIX/M19K/E40L/K43I/Q44S}/Q286R/M298Q-FVIIa (enzyme)”: the kcat/KM (M^-1s^-1), TF-dependent assay in test [1] came to 1.21e+08 M⁻¹ s⁻¹.
Same read-out and setting: for WT (NovoSeven-RT®) (enzyme) the value was 3.48e+07 M⁻¹ s⁻¹.
FVIIa variant K109N/A175S (enzyme): the kcat/KM, TF-Dependent Indirect Assay in test [2] was 3.67e+07 M⁻¹ s⁻¹.
Regarding T128N/P129A/M298Q-FVIIa (enzyme), in test [1], the kcat/KM (M^-1s^-1), TF-dependent assay is 6.29e+07 M⁻¹ s⁻¹ and the kcat/KM, TF-independent assay is 90.8 M⁻¹ s⁻¹.
WT (NovoSeven®) (enzyme): the kcat/KM (M^-1s^-1), TF-dependent assay in test [1] was 3.98e+07 M⁻¹ s⁻¹.
As to FVIIa variant T128N/P129A (enzyme), the kcat/KM, TF-Dependent Indirect Assay in test [2] was found to be 5.96e+07 M⁻¹ s⁻¹.
Consider “T128N/P129A/T239I/Q286R/M298Q/H373F-FVIIa (enzyme)”, for which, in test [1], the kcat/KM (M^-1s^-1), TF-dependent assay was found to be 1.3e+08 M⁻¹ s⁻¹ and the kcat/KM, TF-independent assay came out at 113 M⁻¹ s⁻¹.
Consider “FVIIa variant Q286R/M298Q/Gla Swap FIX (enzyme)”, for which, in test [2], the kcat/KM, TF-Dependent Indirect Assay worked out at 2.64e+08 M⁻¹ s⁻¹.
On to “T128N/P129A/T239V/Q286R/M298Q-FVIIa (enzyme)”, for which, in test [1], the kcat/KM (M^-1s^-1), TF-dependent assay was determined as 1.04e+08 M⁻¹ s⁻¹ and the kcat/KM, TF-independent assay worked out at 230 M⁻¹ s⁻¹.
For FVIIa variant S222A (enzyme), in test [2], the kcat/KM, TF-Dependent Indirect Assay is 5.73e+07 M⁻¹ s⁻¹.
Regarding “WT (NovoSeven®) recombinant human FVIIa (enzyme)”, the kcat/KM, TF-independent assay in test [1] was 9.8 M⁻¹ s⁻¹.
M298Q-FVIIa (enzyme): in test [1], the kcat/KM (M^-1s^-1), TF-dependent assay is 6.76e+07 M⁻¹ s⁻¹ and 7.46e+07 M⁻¹ s⁻¹; the kcat/KM, TF-independent assay turned out to be 69.9 M⁻¹ s⁻¹.
On to T239V/Q286R-FVIIa (enzyme), for which, in test [1], the kcat/KM (M^-1s^-1), TF-dependent assay stood at 8.84e+07 M⁻¹ s⁻¹ and the kcat/KM, TF-independent assay amounted to 11.8 M⁻¹ s⁻¹.
Consider WT (NovoSeven-RT®) FVIIa (enzyme), for which the kcat/KM, TF-independent assay in test [1] was found to be 12.4 M⁻¹ s⁻¹.
On to T128N/P129A/M298Q/H373F-FVIIa (enzyme), for which, in test [1], the kcat/KM (M^-1s^-1), TF-dependent assay stood at 6.07e+07 M⁻¹ s⁻¹ and the kcat/KM, TF-independent assay is 91.6 M⁻¹ s⁻¹.
The corresponding values for “T128N/P129A/T239V/Q286R/M298Q/H373F-FVIIa (enzyme)” are 2.36e+08 M⁻¹ s⁻¹ and 290 M⁻¹ s⁻¹.
On the same counts, the results for “{Gla swap FIX/K43I}/T128N/P129A/Q286R/M298Q/Q366N-FVIIa (enzyme)” are 2.52e+08 M⁻¹ s⁻¹ and 218 M⁻¹ s⁻¹.
Take “FVIIa variant T128N/P129A/A175S (enzyme)”: the kcat/KM, TF-Dependent Indirect Assay in test [2] worked out at 2.98e+07 M⁻¹ s⁻¹.
In the case of “T128N/P129A/S222A/T239V/H257A/Q286R/M298Q-FVIIa (enzyme)”, in test [1], the kcat/KM (M^-1s^-1), TF-dependent assay stood at 1.21e+08 M⁻¹ s⁻¹ and the kcat/KM, TF-independent assay amounted to 179 M⁻¹ s⁻¹.
As for “T128N/P129A/Q286R/M298Q/Q366N/H373F-FVIIa (enzyme)”, the kcat/KM, TF-dependent assay in test [1] is 1.33e+08 M⁻¹ s⁻¹.
As to “Gla swap FIX/S52A/S60A/Q286R/M298Q-FVIIa (enzyme)”, in test [1], the kcat/KM (M^-1s^-1), TF-dependent assay worked out at 1.8e+08 M⁻¹ s⁻¹ and the kcat/KM, TF-independent assay stood at 989 M⁻¹ s⁻¹.
Regarding “Gla swap FIX/S222A/H257S/Q286R-FVIIa (enzyme)”, the kcat/KM, TF-independent assay in test [1] turned out to be 20.5 M⁻¹ s⁻¹.
Consider “FVIIa variant A122N/G124S/A175S (enzyme)”, for which the kcat/KM, TF-Dependent Indirect Assay in test [2] was 2.79e+07 M⁻¹ s⁻¹.
“T128N/P129A/T239I/Q286R/M298Q-FVIIa (enzyme)”: in test [1], the kcat/KM (M^-1s^-1), TF-dependent assay was 8.17e+07 M⁻¹ s⁻¹ and the kcat/KM, TF-independent assay is 77.8 M⁻¹ s⁻¹.
Regarding FVIIa variant K109N (enzyme), in test [2], the kcat/KM, TF-Dependent Indirect Assay came out at 5.97e+07 M⁻¹ s⁻¹.
Turning to “T128N/P129A/Q286R/M298Q/Q366N-FVIIa (enzyme)”, in test [1], the kcat/KM (M^-1s^-1), TF-dependent assay amounted to 1.42e+08 M⁻¹ s⁻¹ and the kcat/KM, TF-independent assay was determined as 64.6 M⁻¹ s⁻¹.
For the molecule FVIIa variant Q286R (enzyme), the kcat/KM, TF-Dependent Indirect Assay in test [2] came out at 1.11e+08 M⁻¹ s⁻¹.
On to “FVIIa variant S119N/L121S/A175S (enzyme)”, for which the kcat/KM, TF-Dependent Indirect Assay in test [2] is 2.92e+07 M⁻¹ s⁻¹.
On the same count and under the same terms, under FVIIa variant M298Q (enzyme) stands 1.4e+08 M⁻¹ s⁻¹.
For the molecule “Gla swap FIX/S222A/T239I/Q286R-FVIIa (enzyme)”, the kcat/KM, TF-independent assay in test [1] is 20.3 M⁻¹ s⁻¹.
For FVIIa variant S52A/S60A (enzyme), the kcat/KM, TF-Dependent Indirect Assay in test [2] turned out to be 1.05e+08 M⁻¹ s⁻¹.

B1: FVIIa variant Q286N (enzyme)
chain: ANAFLEELRPGSLERECKEEQCSFEEAREIFKDAERTKLFWISYSDGDQCASSPCQNGGSCKDQLQSYICFCLPAFEGRNCETHKDDQLICVNENGGCEQYCSDHTGTKRSCRCHEGYSLLADGVSCTPTVEYPCGKIPILEKRNASKPQGRIVGGKVCPKGECPWQVLLLVNGAQLCGGTLINTIWVVSAAHCFDKIKNWRNLIAVLGEHDLSEHDGDEQSRRVAQVIIPSTYVPGTTNHDIALLRLHQPVVLTDHVVPLCLPERTFSERTLAFVRFSLVSGWGNLLDRGATALELMVLNVPRLMTQDCLQQSRKVGDSPNITEYMFCAGYSDGSKDSCKGDSGGPHATHYRGTWYLTGIVSWGQGCATVGHFGVYTRVSQYIEWLQKLMRSEPRPGVLLRAPFP
Take B1: the kcat/KM, TF-Dependent Indirect Assay in test [2] is 4.88e+07 M⁻¹ s⁻¹.

B2: FVIIa variant S222K (enzyme)
chain: B1 chain with S222K, N286Q
Take B2: the kcat/KM, TF-Dependent Indirect Assay in test [2] was found to be 8.02e+07 M⁻¹ s⁻¹.

B3: FVIIa variant H216S (enzyme)
chain: B1 chain with H216S, N286Q
In the case of B3, the kcat/KM, TF-Dependent Indirect Assay in test [2] was 4.74e+07 M⁻¹ s⁻¹.

B4: FVIIa variant K161S (enzyme)
chain: B1 chain with K161S, N286Q
For B4, the kcat/KM, TF-Dependent Indirect Assay in test [2] was 5.99e+07 M⁻¹ s⁻¹.

B5: T239I-FVIIa (enzyme)
chain: B1 chain with T239I, N286Q
With B5, the kcat/KM (M^-1s^-1), TF-dependent assay in test [1] is 2.62e+07 M⁻¹ s⁻¹.

B6: FVIIa variant Q286K (enzyme)
chain: B1 chain with N286K
As to B6, the kcat/KM, TF-Dependent Indirect Assay in test [2] is 5.44e+07 M⁻¹ s⁻¹.

B7: S222A/H257A/Q286R/M298Q-FVIIa (enzyme)
chain: B1 chain with S222A, H257A, N286R, M298Q
Turning to B7, in test [1], the kcat/KM (M^-1s^-1), TF-dependent assay was 1.65e+08 M⁻¹ s⁻¹ and the kcat/KM, TF-independent assay is 345 M⁻¹ s⁻¹.

B8: FVIIa variant Q286V (enzyme)
chain: B1 chain with N286V
As to B8, in test [2], the kcat/KM, TF-Dependent Indirect Assay was determined as 1.65e+07 M⁻¹ s⁻¹.

B9: Q286R/S222A-FVIIa (enzyme)
chain: B1 chain with S222A, N286R
On to B9, for which the kcat/KM (M^-1s^-1), TF-dependent assay in test [1] was found to be 1.11e+08 M⁻¹ s⁻¹.

B10: H257A/M298Q-FVIIa (enzyme)
chain: B1 chain with H257A, N286Q, M298Q
Consider B10, for which, in test [1], the kcat/KM (M^-1s^-1), TF-dependent assay is 1.67e+07 M⁻¹ s⁻¹.

B11: FVIIa variant H257S (enzyme)
chain: B1 chain with H257S, N286Q
For B11, the kcat/KM, TF-Dependent Indirect Assay in test [2] stood at 5.9e+07 M⁻¹ s⁻¹.

B12: FVIIa variant H216K (enzyme)
chain: B1 chain with H216K, N286Q
B12: in test [2], the kcat/KM, TF-Dependent Indirect Assay came to 6.51e+07 M⁻¹ s⁻¹.

B13: T239V-FVIIa (enzyme)
chain: B1 chain with T239V, N286Q
Consider B13, for which the kcat/KM (M^-1s^-1), TF-dependent assay in test [1] came to 4.64e+07 M⁻¹ s⁻¹.

B14: A175S-FVIIa (enzyme)
chain: B1 chain with A175S, N286Q
In the case of B14, the kcat/KM (M^-1s^-1), TF-dependent assay in test [1] was found to be 2.11e+07 M⁻¹ s⁻¹.

B15: Q286R/S222A/H257A-FVIIa (enzyme)
chain: B1 chain with S222A, H257A, N286R
Regarding B15, in test [1], the kcat/KM (M^-1s^-1), TF-dependent assay was 6.98e+07 M⁻¹ s⁻¹ and the kcat/KM, TF-independent assay was determined as 21.3 M⁻¹ s⁻¹.

B16: FVIIa variant H257A (enzyme)
chain: B1 chain with H257A, N286Q
As for B16, the kcat/KM, TF-Dependent Indirect Assay in test [2] amounted to 3.9e+07 M⁻¹ s⁻¹.

B17: T239I/Q286R/M298Q/Q366N-FVIIa (enzyme)
chain: B1 chain with T239I, N286R, M298Q, Q366N
With B17, the kcat/KM, TF-dependent assay in test [1] was 7.4e+07 M⁻¹ s⁻¹.

B18: FVIIa variant Q286D (enzyme)
chain: B1 chain with N286D
Regarding B18, the kcat/KM, TF-Dependent Indirect Assay in test [2] was determined as 6.04e+06 M⁻¹ s⁻¹.

B19: FVIIa variant Q286E (enzyme)
chain: B1 chain with N286E
As to B19, in test [2], the kcat/KM, TF-Dependent Indirect Assay is 1.14e+07 M⁻¹ s⁻¹.

B20: FVIIa variant Q286S (enzyme)
chain: B1 chain with N286S
On to B20, for which, in test [2], the kcat/KM, TF-Dependent Indirect Assay is 4.64e+07 M⁻¹ s⁻¹.

B21: FVIIa variant H216R (enzyme)
chain: B1 chain with H216R, N286Q
As to B21, the kcat/KM, TF-Dependent Indirect Assay in test [2] amounted to 9.44e+07 M⁻¹ s⁻¹.

B22: FVIIa variant Q286A (enzyme)
chain: B1 chain with N286A
Take B22: the kcat/KM, TF-Dependent Indirect Assay in test [2] was found to be 8.55e+07 M⁻¹ s⁻¹.

B23: FVIIa variant Q286T (enzyme)
chain: B1 chain with N286T
Regarding B23, the kcat/KM, TF-Dependent Indirect Assay in test [2] worked out at 2.44e+07 M⁻¹ s⁻¹.

B24: T239I/M298Q/H373F-FVIIa (enzyme)
chain: B1 chain with T239I, N286Q, M298Q, H373F
B24: the kcat/KM, TF-dependent assay in test [1] is 3.47e+07 M⁻¹ s⁻¹.

B25: FVIIa variant H216A (enzyme)
chain: B1 chain with H216A, N286Q
As to B25, in test [2], the kcat/KM, TF-Dependent Indirect Assay was 5.98e+07 M⁻¹ s⁻¹.
